Results: PMC12337289, “Cryo-EM structure and polar assembly of the PS2 S-layer of Corynebacterium glutamicum” (Proceedings of the National Academy of Sciences of the …, 2025)

B1: PS2 assembly domain (PS2^AD; residues 30 to 483), recombinant (domain or fragment, C. glutamicum, UniProt Q04985 30-483, looked up)
chain: AQETNPTFNITNGFNDADGSTIQPVGPVNHTEETLRDLTDSTGAYLEEFQNGTVEEIVEAYLQVQASADGFDPSEQAAYEAFEAARVRASQELAASAETITKTRESVAYALKVDQEATAAFEAYRNALRDAAISINPDGSINPDTSINLLIDAANAANRTDRAEIEDYAHLYTQTDIALETPQLAYAFQDLKALQAEVDADFEWLGEFGIDQEDGNYVQRYHLPAVEALKAEVDARVAAIEPLRADSIAKNLEAQKSDVLVRQLFLERATAQRDTLRVVEAIFSTSARYVELYENVENVNVENKTLRQHYSALIPNLFIAAVANISELNAADAEAAAYYLHWDTDLATNDEDEAYYKAKLDFAIETYAKILFNGEVWQEPLAYVQNLDAGARQEAADREAARAADEAYRAEQLRIAQEAADAQKAIAEALAKEAEGNNDNSSDNTETGSSDIGS
notes: PS2 (cspB) of C. glutamicum, residues 30 to 483; the membrane anchoring domain is replaced by a hexahistidine tag; Vector pASK-IBA3plus; also called recombinant soluble PS2^AD; plasmid A231; source: E. coli BL21 (DE3) cytoplasm, gel-like pelleted fraction, washed with 1% DDM and SEC buffer; not shown: hexahistidine, C-terminal, kept

Experiments:
[1] = biological target: PS2 S-layer protein, ex vivo S-layer fragments from C. glutamicum ATCC13032 icd::cspB (C. glutamicum); experiment: cryo-EM structure; ex vivo PS2 S-layer fragments, 0.02% DDM added before plunging, tilted images at 15° and 30°, single-particle reconstruction with C6 symmetry; lattice of hexamers (C6) joined by trimeric (C3) contacts
[2] = biological target: the molecule itself; experiment: negative-stain electron microscopy of isolated S-layer sheets; isolated S-layer sheets (cleared SDS extractions of C. glutamicum; washed recombinant sheets from E. coli); lattice seen in the power spectrum; sheets also kept after incubation with 10 mM EDTA

Molecule | stoichiometry N [1] | binding result [2]
PS2 S-layer protein, ex vivo S-layer fragments from C. glutamicum ATCC13032 icd::cspB (natural protein) | 6 | –
B1 | – | binds
